Measured values: patent publication US10801027B2, “Inhibitors of SRSF1 to treat neurodegenerative disorders” (University of Sheffield, priority 2016, dated 2020)

Assays:
[1] = tested on: poly-Gly-Pro and poly-Gly-Ala DPRs; test: Western blot of RAN-translated DPRs in N2A cells; type: cell-based, mouse; details: G4C2×38 or C4G2×39 constructs, 72 h
Experimental: Neuro-2a (ATCC) cells were cultured in Dulbecco's Modified Eagle Medium (Sigma) supplemented with 10% fetal bovine serum [FBS] (Gibco), 5 U/ml Penstrep (Lonza) and 5 mM sodium pyruvate. Cells were maintained in a […] incubator with 5% CO2. 75,000 Neuro-2a cells were split into each well of 24-well plates and transfected for 72 h with 500 ng pcDNA6.2-GW/EmGFP-Control miR RNAi (ThermoFisher) or pcDNA6.2-GW/EmGFP-mouse SRSF1 miR1+2 RNAi and 200 ng pcDNA 3.1/RAN-G4C2×38-sense or RAN-C4G2×39-antisense using 3 μg PEI/1 μg DNA and one tenth medium volume OptiMEM (ThermoFisher).
HEK cells were transfected for 72 h with 650 ng pcDNA6.2-GW/EmGFP-Control miRNA, pCDNA6.2-GW/EmGFP-human SRSF1 miR1+2 RNAi or LV-EmGFP-human SRSF1 miR1+2 RNAi constructs and 50 ng p3×FLAG/human-SRSF1 using 3.5 μg PEI/ml media and one tenth medium volume of OptiMEM. Neuro-2a cells were split into each well of 24-well plates (75,000 cells/well) and transfected for 72 h with 350 ng pcDNA6.2-GW/EmGFP-Control miR RNAi (ThermoFisher), pcDNA6.2-GW/EmGFP-mouse SRSF1 miR1+2 RNAi, p3×FLAG, p3×FLAG/SRSF1 (11-196), p3×FLAG/SRSF1 (11-196)-m2 or p3×FLAG/SRSF1 (11-196)-m4 and 350 ng pcDNA 3.1/RAN-G4C2×38-sense or RAN-C4G2×39-antisense using 3 μg PEI/1 μg DNA and one tenth medium volume OptiMEM.
Proteins were extracted from HEK or Neuro-2a cells 72 hours after transfection. […] Protein extracts were quantified using Bradford Reagent (BioRAD), resolved by SDS-PAGE, electroblotted onto nitrocellulose membrane and probed using the relevant primary antibody. […] (kindly received from Prof Stuart Pickering Brown) primary antibodies were detected with horseradish peroxidase (HRP)-conjugated rabbit secondary antibody [1:5000 dilution] […] (kindly provided from Prof Dieter Edbauer) primary antibodies were detected using HRP-conjugated mouse secondary antibody [1:5000 dilution] […] For dot blot analysis, 50 μg total protein extracts prepared in ice-cold lysis buffer were loaded onto a nitrocellulose membrane using a microfiltration apparatus (Biorad) and analysed by western immunoblotting as previously described.

[2] = tested on: C4G2×5 repeat RNA; test: Protein:RNA UV crosslinking assay, antisense probe; type: binding; details: purified recombinant hexa-histidine-tagged protein
Experimental: Recombinant proteins expressed in 1.51 of E. coli BL21 (DE3)-RP (Novagen) cell cultures were purified by IMAC chromatography on TALON/Cobalt beads (Clontech) in 1M NaCl containing buffers to prevent the potential co-purification of E. coli RNA (Lysis buffer: 50 mM TRIS-HCl pH8.0, 1M NaCl, 0.5% Triton X-100; Wash buffer: 50 mM TRIS-HCl pH8.0, 1M NaCl, 0.5% Triton X-100, 5 mM imidazole). […] Binding reactions were resolved on SDS-PAGE prior to analysis by Coomassie staining and Phosphoimaging.

[3] = tested on: N2A cells; test: MTT cell proliferation assay; type: cell-based, mouse; details: G4C2×38 or C4G2×39 plasmids, 72 h
Experimental: Neuro-2a (N2A) cells were split into each well of a 24 well plate (30,000 cells/well). Each plate contained 4 wells with only media to serve as a blank and 4 wells/treatment. Cells were transfected for 72 hours with either 500 ng pcDNA 3.1, pcDNA 3.1/RAN-G4C2×15 RAN-G4C2×38-sense, RAN-C4G2×15 or RAN-C4G2×39-antisense; or 250 ng pcDNA6.2-GW/EmGFP-Control miR RNAi, pcDNA6.2-GW/EmGFP-mouse SRSF1 miR1+2 RNAi, p3×FLAG/SRSF1 (11-196), or p3×FLAG/SRSF1 (11-196)-m4 and 250 ng pcDNA 3.1, pcDNA 3.1/RAN-G4C2×38-sense or RAN-C4G2×39-antisense.
[…] Thiazolyl Blue Tetrazolum Bromide reagent (MTT) was added to each well and incubated in the dark at […] for 1 hour. Cells were subsequently lysed with equal volume MTT lysis buffer (20% SDS, 50% Dimethylformamide (DMF)) and incubated, shaking, at room temperature for 1 hour. Absorbance at 595 was then assessed with a PHERAstar FS (BMG Labtech). Experiments were performed in triplicate for each treatment. Absorbance data was analysed using PHERAstar MARS (BMG Labtech) and GraphPad Prism (version 6).

B1: SRSF1-m4: quadruple SRSF1 point mutant aa11-196, dominant negative, does not interact with TAP/NXF1 (protein)
chain: AGNNDCRIYVGNLPPDIRTKDIEDVFYKYGAIRDIDLKNRRGGPPFAFVEFEDPRDAEDAVYGRDGYDYDGYRLRVEFPASGAGTGRGGGGGGGGGAPRGRYGPPSAASENRVVVSGLPPSGSWQDLKDHMREAGDVCYADVYRDGTGVVEFVRKEDMTYAVRKLDNTKFRSHEGETAYIRVKVDG
modifications: left off: small tags and cut ends
**Q.** Which “effect on RAN translation / production of sense and antisense DPRs” value [1] does the source give for B1 here?
**A.** Its value is “marked reduction”.

**Q.** And the “direct interaction with antisense C4G2×5 repeat RNA” value [2]?
**A.** Its value is “retains the ability to directly interact”.

**Q.** And the “neurotoxicity mediated by expression of the C9ORF72 repeat transcripts” value [3]?
**A.** Its value is “suppress the neurotoxicity”.
